Data on three molecules can be found in doi:10.1101/2023.07.25.550448 (bioRxiv, 2023).

Assay [1] deals with T1, His6-p97 WT (human, UniProt P55072 1-806). In words: pull-down.
The target in assay [2] is T1, His6-p97 WT. In words: SPR. (In general: In SPR one partner is held on a chip, and binding of the other changes the refractive index at the surface.)
Assay [3] addresses T1, His6-p97 WT. In words: mass photometry.

Values joined by “and” are separate entries in the source; they are usually repeats but may differ in a detail not shown here. Equal values may be shown once. No end group written: not given here. *: point of attachment. Biotin = O=C1N[C@H]2[C@H](CS[C@H]2CCCCC(=O)*)N1

T1 sequence (P55072 whole entry): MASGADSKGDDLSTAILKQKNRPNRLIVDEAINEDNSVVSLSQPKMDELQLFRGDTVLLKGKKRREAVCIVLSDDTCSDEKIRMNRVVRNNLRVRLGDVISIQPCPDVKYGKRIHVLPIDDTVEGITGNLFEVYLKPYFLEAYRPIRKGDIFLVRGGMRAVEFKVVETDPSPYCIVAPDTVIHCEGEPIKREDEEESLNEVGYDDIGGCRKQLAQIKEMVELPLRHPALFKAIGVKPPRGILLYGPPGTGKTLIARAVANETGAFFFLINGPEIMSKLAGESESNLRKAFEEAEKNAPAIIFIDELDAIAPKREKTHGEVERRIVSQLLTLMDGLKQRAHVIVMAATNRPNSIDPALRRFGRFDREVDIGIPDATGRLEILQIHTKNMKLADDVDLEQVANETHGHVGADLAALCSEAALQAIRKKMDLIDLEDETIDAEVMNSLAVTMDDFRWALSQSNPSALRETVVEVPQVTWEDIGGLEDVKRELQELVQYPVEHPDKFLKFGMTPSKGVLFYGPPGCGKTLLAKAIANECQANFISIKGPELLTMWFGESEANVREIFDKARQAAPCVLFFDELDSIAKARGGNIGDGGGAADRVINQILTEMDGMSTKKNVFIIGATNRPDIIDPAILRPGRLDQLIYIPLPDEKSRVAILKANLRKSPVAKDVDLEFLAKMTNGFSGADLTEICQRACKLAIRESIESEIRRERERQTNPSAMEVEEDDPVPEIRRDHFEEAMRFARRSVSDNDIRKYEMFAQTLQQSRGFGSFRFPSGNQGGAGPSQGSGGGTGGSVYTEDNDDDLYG

Consider Biotin-PTPDLEEKRAKLAEAAERRQKEAAS [VIM peptide (SVIP, aa14-39)], for which the binding result in assay [1] is “binds”.

B1: Strep-HA-VCF1 WT (natural protein)
chain: not shown
A word on the Kd: it is a measure of binding affinity in units of concentration. Read a low Kd as a tighter complex. B1 registered a Kd in assay [2] of roughly 10 nM. In assay [3], the “stoichiometry N” value was 2 VCF1 molecules per p97 hexamer and 3 VCF1 molecules per p97 hexamer.

As to Biotin-NLTSEELRKRREAYFEKQQQK [VBM peptide (ATXN3, aa275-295)], the binding result in assay [1] is on record as “binds”.
